Measurements from article PMC10786891, “Massively parallel profiling of RNA-targeting CRISPR-Cas13d”.

T1: EsCas13d, nuclease-dead (Eubacterium siraeum, UniProt B0MS50, R295A;H300A;R849A;H854A)
T1 sequence: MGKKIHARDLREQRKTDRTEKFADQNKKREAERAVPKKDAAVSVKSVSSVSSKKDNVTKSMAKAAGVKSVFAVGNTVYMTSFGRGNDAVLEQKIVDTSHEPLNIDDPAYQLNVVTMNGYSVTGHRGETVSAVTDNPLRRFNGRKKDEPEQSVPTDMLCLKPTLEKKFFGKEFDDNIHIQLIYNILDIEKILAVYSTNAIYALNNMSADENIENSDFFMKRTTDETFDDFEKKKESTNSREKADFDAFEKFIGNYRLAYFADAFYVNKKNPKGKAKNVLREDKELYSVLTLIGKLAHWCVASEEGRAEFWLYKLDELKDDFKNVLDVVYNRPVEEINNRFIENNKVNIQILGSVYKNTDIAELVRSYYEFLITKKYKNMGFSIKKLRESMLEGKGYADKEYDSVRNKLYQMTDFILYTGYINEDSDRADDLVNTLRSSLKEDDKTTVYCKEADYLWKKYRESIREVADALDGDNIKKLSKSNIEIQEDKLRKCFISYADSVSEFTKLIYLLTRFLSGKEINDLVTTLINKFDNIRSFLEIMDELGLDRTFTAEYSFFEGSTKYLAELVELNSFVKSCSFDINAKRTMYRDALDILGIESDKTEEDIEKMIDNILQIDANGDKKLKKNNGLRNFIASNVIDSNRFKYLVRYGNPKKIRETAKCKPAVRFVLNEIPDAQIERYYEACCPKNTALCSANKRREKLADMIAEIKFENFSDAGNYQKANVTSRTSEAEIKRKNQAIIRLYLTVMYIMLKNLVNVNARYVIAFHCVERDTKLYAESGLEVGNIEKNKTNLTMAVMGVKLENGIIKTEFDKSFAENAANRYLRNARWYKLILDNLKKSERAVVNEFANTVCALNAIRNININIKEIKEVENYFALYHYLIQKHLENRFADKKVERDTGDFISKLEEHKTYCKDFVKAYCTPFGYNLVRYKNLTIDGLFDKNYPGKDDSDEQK

B1: target 1 C7U,U8C (mixed)
RNA 1: CACCCGUGCAAAAAUGCAGGGGUCUAAAACUGAGCGGAUAACCUCUCUAUGG
RNA 2: GGGAAUGGAUCCACAUCUACGAAUUCGUACCAUAGAGAGGUUACUCGCUCACCGAGAUCGGAAGAGCACACGU
B2: target 1 G5C,U10C (mixed)
RNA 1: CACCCGUGCAAAAAUGCAGGGGUCUAAAACUGAGCGGAUAACCUCUCUAUGG
RNA 2: GGGAAUGGAUCCACAUCUACGAAUUCGUACCAUAGAGAGGUCAUCCCCUCACCGAGAUCGGAAGAGCACACGU
B3: target 1 U3A,A20C (mixed)
RNA 1: CACCCGUGCAAAAAUGCAGGGGUCUAAAACUGAGCGGAUAACCUCUCUAUGG
RNA 2: GGGAAUGGAUCCACAUCUACGAAUUCGUACCCUAGAGAGGUUAUCCGCACACCGAGAUCGGAAGAGCACACGU
B4: target 1 complement block 9-11 (mixed)
RNA 1: CACCCGUGCAAAAAUGCAGGGGUCUAAAACUGAGCGGAUAACCUCUCUAUGG
RNA 2: GGGAAUGGAUCCACAUCUACGAAUUCGUACCAUAGAGAGGAAUUCCGCUCACCGAGAUCGGAAGAGCACACGU
B5: target 1 insU 3' of 22,insC 3' of 9 (mixed)
RNA 1: CACCCGUGCAAAAAUGCAGGGGUCUAAAACUGAGCGGAUAACCUCUCUAUGG
RNA 2: GGGAAUGGAUCCACAUCUACGAAUUCGUACUCAUAGAGAGGUUACUCCGCUCACCGAGAUCGGAAGAGCACACGU
B6: target 1 insG 3' of 3,insA 3' of 3 (mixed)
RNA 1: CACCCGUGCAAAAAUGCAGGGGUCUAAAACUGAGCGGAUAACCUCUCUAUGG
RNA 2: GGGAAUGGAUCCACAUCUACGAAUUCGUACCAUAGAGAGGUUAUCCGCUGACACCGAGAUCGGAAGAGCACACGU
B7: target 1 A1C,A16C (mixed)
RNA 1: CACCCGUGCAAAAAUGCAGGGGUCUAAAACUGAGCGGAUAACCUCUCUAUGG
RNA 2: GGGAAUGGAUCCACAUCUACGAAUUCGUACCAUAGCGAGGUUAUCCGCUCCCCGAGAUCGGAAGAGCACACGU
B8: target 1 insU 3' of 1,insU 3' of 1 (mixed)
RNA 1: CACCCGUGCAAAAAUGCAGGGGUCUAAAACUGAGCGGAUAACCUCUCUAUGG
RNA 2: GGGAAUGGAUCCACAUCUACGAAUUCGUACCAUAGAGAGGUUAUCCGCUCAUUCCGAGAUCGGAAGAGCACACGU
B9: target 1 insC 3' of 22,insC 3' of 11 (mixed)
RNA 1: CACCCGUGCAAAAAUGCAGGGGUCUAAAACUGAGCGGAUAACCUCUCUAUGG
RNA 2: GGGAAUGGAUCCACAUCUACGAAUUCGUACCCAUAGAGAGGUCUAUCCGCUCACCGAGAUCGGAAGAGCACACGU
B10: target 1 insC 3' of 14,insC 3' of 8 (mixed)
RNA 1: CACCCGUGCAAAAAUGCAGGGGUCUAAAACUGAGCGGAUAACCUCUCUAUGG
RNA 2: GGGAAUGGAUCCACAUCUACGAAUUCGUACCAUAGAGACGGUUAUCCCGCUCACCGAGAUCGGAAGAGCACACGU
B11: target 1 insC 3' of 18,insC 3' of 13 (mixed)
RNA 1: CACCCGUGCAAAAAUGCAGGGGUCUAAAACUGAGCGGAUAACCUCUCUAUGG
RNA 2: GGGAAUGGAUCCACAUCUACGAAUUCGUACCAUACGAGAGCGUUAUCCGCUCACCGAGAUCGGAAGAGCACACGU
B12: target 1 C7U,A9U (mixed)
RNA 1: CACCCGUGCAAAAAUGCAGGGGUCUAAAACUGAGCGGAUAACCUCUCUAUGG
RNA 2: GGGAAUGGAUCCACAUCUACGAAUUCGUACCAUAGAGAGGUUUUUCGCUCACCGAGAUCGGAAGAGCACACGU
B13: target 1 insC 3' of 20,insC 3' of 17 (mixed)
RNA 1: CACCCGUGCAAAAAUGCAGGGGUCUAAAACUGAGCGGAUAACCUCUCUAUGG
RNA 2: GGGAAUGGAUCCACAUCUACGAAUUCGUACCACUAGCAGAGGUUAUCCGCUCACCGAGAUCGGAAGAGCACACGU
B14: target 1 G5U,G12U (mixed)
RNA 1: CACCCGUGCAAAAAUGCAGGGGUCUAAAACUGAGCGGAUAACCUCUCUAUGG
RNA 2: GGGAAUGGAUCCACAUCUACGAAUUCGUACCAUAGAGAGUUUAUCCUCUCACCGAGAUCGGAAGAGCACACGU
B15: target 1 U3G,A20C (mixed)
RNA 1: CACCCGUGCAAAAAUGCAGGGGUCUAAAACUGAGCGGAUAACCUCUCUAUGG
RNA 2: GGGAAUGGAUCCACAUCUACGAAUUCGUACCCUAGAGAGGUUAUCCGCGCACCGAGAUCGGAAGAGCACACGU
B16: target 1 insC 3' of 19,insA 3' of 6 (mixed)
RNA 1: CACCCGUGCAAAAAUGCAGGGGUCUAAAACUGAGCGGAUAACCUCUCUAUGG
RNA 2: GGGAAUGGAUCCACAUCUACGAAUUCGUACCAUCAGAGAGGUUAUCCAGCUCACCGAGAUCGGAAGAGCACACGU
B17: target 1 insG 3' of 18,insA 3' of 8 (mixed)
RNA 1: CACCCGUGCAAAAAUGCAGGGGUCUAAAACUGAGCGGAUAACCUCUCUAUGG
RNA 2: GGGAAUGGAUCCACAUCUACGAAUUCGUACCAUAGGAGAGGUUAUACCGCUCACCGAGAUCGGAAGAGCACACGU
B18: target 1 insG 3' of 16,insA 3' of 12 (mixed)
RNA 1: CACCCGUGCAAAAAUGCAGGGGUCUAAAACUGAGCGGAUAACCUCUCUAUGG
RNA 2: GGGAAUGGAUCCACAUCUACGAAUUCGUACCAUAGAGGAGGAUUAUCCGCUCACCGAGAUCGGAAGAGCACACGU
B19: target 1 insA 3' of 11 (mixed)
RNA 1: CACCCGUGCAAAAAUGCAGGGGUCUAAAACUGAGCGGAUAACCUCUCUAUGG
RNA 2: GGGAAUGGAUCCACAUCUACGAAUUCGUACCAUAGAGAGGUAUAUCCGCUCACCGAGAUCGGAAGAGCACACGU
B20: target 1 insA 3' of 15,insA 3' of 15 (mixed)
RNA 1: CACCCGUGCAAAAAUGCAGGGGUCUAAAACUGAGCGGAUAACCUCUCUAUGG
RNA 2: GGGAAUGGAUCCACAUCUACGAAUUCGUACCAUAGAGAAAGGUUAUCCGCUCACCGAGAUCGGAAGAGCACACGU
B21: target 1 insU 3' of 14,insG 3' of 4 (mixed)
RNA 1: CACCCGUGCAAAAAUGCAGGGGUCUAAAACUGAGCGGAUAACCUCUCUAUGG
RNA 2: GGGAAUGGAUCCACAUCUACGAAUUCGUACCAUAGAGAUGGUUAUCCGCGUCACCGAGAUCGGAAGAGCACACGU
B22: target 1 insG 3' of 20,insC 3' of 20 (mixed)
RNA 1: CACCCGUGCAAAAAUGCAGGGGUCUAAAACUGAGCGGAUAACCUCUCUAUGG
RNA 2: GGGAAUGGAUCCACAUCUACGAAUUCGUACCAGCUAGAGAGGUUAUCCGCUCACCGAGAUCGGAAGAGCACACGU
B23: target 1 A1G,U19A (mixed)
RNA 1: CACCCGUGCAAAAAUGCAGGGGUCUAAAACUGAGCGGAUAACCUCUCUAUGG
RNA 2: GGGAAUGGAUCCACAUCUACGAAUUCGUACCAAAGAGAGGUUAUCCGCUCGCCGAGAUCGGAAGAGCACACGU
B24: target 1 insA 3' of 6,insU 3' of 5 (mixed)
RNA 1: CACCCGUGCAAAAAUGCAGGGGUCUAAAACUGAGCGGAUAACCUCUCUAUGG
RNA 2: GGGAAUGGAUCCACAUCUACGAAUUCGUACCAUAGAGAGGUUAUCCAGUCUCACCGAGAUCGGAAGAGCACACGU
B25: target 1 U8C,G15U (mixed)
RNA 1: CACCCGUGCAAAAAUGCAGGGGUCUAAAACUGAGCGGAUAACCUCUCUAUGG
RNA 2: GGGAAUGGAUCCACAUCUACGAAUUCGUACCAUAGAUAGGUUACCCGCUCACCGAGAUCGGAAGAGCACACGU
B26: target 1 insU 3' of 14,insA 3' of 3 (mixed)
RNA 1: CACCCGUGCAAAAAUGCAGGGGUCUAAAACUGAGCGGAUAACCUCUCUAUGG
RNA 2: GGGAAUGGAUCCACAUCUACGAAUUCGUACCAUAGAGAUGGUUAUCCGCUACACCGAGAUCGGAAGAGCACACGU
B27: target 1 insA 3' of 10,insU 3' of 6 (mixed)
RNA 1: CACCCGUGCAAAAAUGCAGGGGUCUAAAACUGAGCGGAUAACCUCUCUAUGG
RNA 2: GGGAAUGGAUCCACAUCUACGAAUUCGUACCAUAGAGAGGUUAAUCCUGCUCACCGAGAUCGGAAGAGCACACGU
B28: target 1 insG 3' of 19,insA 3' of 12 (mixed)
RNA 1: CACCCGUGCAAAAAUGCAGGGGUCUAAAACUGAGCGGAUAACCUCUCUAUGG
RNA 2: GGGAAUGGAUCCACAUCUACGAAUUCGUACCAUGAGAGAGGAUUAUCCGCUCACCGAGAUCGGAAGAGCACACGU

Molecular target: T1, EsCas13d, nuclease-dead
Experiment: crRNA (strand 1, pre-loaded); Mg2+; 40 mM Tris-HCl pH 7.5, 150 mM NaCl, 6 mM MgCl2, 1 mM DTT, 0.1% Tween-20, 0.2 mg/ml BSA; 25 C; 10 min per concentration, then washed
Details: tags: His6-TwinStrep-SUMO cleaved; N-terminal SNAP kept (SNAP-Surface 488); label: 3' end held by stalled T7 RNA polymerase

Going from B1 to B2, the Kd rises from 8.7 ± 0.5 nM to 23.2 ± 1.2 nM (2.7-fold).

B3 and B4 are within 1.5-fold of each other in Kd: 26.3 ± 1.6 nM for the first, 22.9 ± 1.5 nM for the second.

First: B5
Second: B6
The Kd of the first is 5.9-fold higher: 36 ± 7 nM for the first, 6.1 ± 0.4 nM for the second. The second binds more tightly here.

Compared with B7, B8 is 3.7-fold lower in Kd: 42 ± 9 nM for the first, 11.3 ± 0.9 nM for the second.

B9 and B10 are within error of each other in Kd: 50 ± 6 nM for the first, 48 ± 7 nM for the second.

First: B11
Second: B12
The Kd of the first is 7.8-fold higher: 49 ± 6 nM for the first, 6.3 ± 0.4 nM for the second.

Going from B13 to B14, the Kd rises from 4.9 ± 0.6 nM to 41 ± 7 nM (8.4-fold). The first binds more tightly here.

B15 and B16 are within 1.5-fold of each other in Kd: 28.1 ± 2.2 nM for the first, 38.2 ± 2.2 nM for the second.

B17 and B18 are within error of each other in Kd: 56 ± 5 nM for the first, 45 ± 9 nM for the second.

Compared with B19, B20 is 2.7-fold lower in Kd: 16.4 ± 0.8 nM for the first, 6.1 ± 0.5 nM for the second. The second binds more tightly here.

Going from B21 to B22, the Kd rises from 31.8 ± 2.8 nM to 50 ± 7 nM (1.6-fold).

B23 and B24 are within 1.5-fold of each other in Kd: 29 ± 4 nM for the first, 41 ± 5 nM for the second.

First: B25
Second: B26
The Kd of the first is 1.6-fold lower: 34.6 ± 2.5 nM for the first, 56 ± 14 nM for the second.

Going from B27 to B28, the Kd rises from 13.9 ± 0.5 nM to roughly 80 nM (5.8-fold).
